Test results reported in patent US20240350588A1 (SUNSHINE LAKE PHARMA, published 2024).
Where a chain is given by its changes, count along the chain named. Blank lines part the entries; values can stand above or below the binder they belong to.

Molecular target: T1, human GFRAL (UniProtKB-Q6UXVO) (human, UniProt Q6UXV0 19-394)
T1 sequence (looked up): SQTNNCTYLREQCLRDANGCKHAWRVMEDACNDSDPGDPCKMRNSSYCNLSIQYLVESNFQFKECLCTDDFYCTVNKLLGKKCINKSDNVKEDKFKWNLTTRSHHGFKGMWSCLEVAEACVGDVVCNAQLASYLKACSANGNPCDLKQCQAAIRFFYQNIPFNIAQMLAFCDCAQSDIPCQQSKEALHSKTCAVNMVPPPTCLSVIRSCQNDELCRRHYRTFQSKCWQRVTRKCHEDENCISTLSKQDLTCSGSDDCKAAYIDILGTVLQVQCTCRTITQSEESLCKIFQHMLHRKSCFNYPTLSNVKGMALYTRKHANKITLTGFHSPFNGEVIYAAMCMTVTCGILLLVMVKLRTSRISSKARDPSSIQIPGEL
Assay: cell-based or functional assay

Relative activity ratio (native GDF15 EC50: Fc-GDF15 construct EC50), ERK1/2 phosphorylation HTRF in HEK293T cells expressing human GFRAL and RET: 1.5 ratio
B2: Fc-GDF15 fusion protein M50 (Fc fusion)
chain: APEAAGGPSVFLFPPKPKDTLMISRTPEVTCVVVDVSQEDPEVQFNWYVDGVEVHNAKTKPREEQFNSTYRVVSVLTVLHQDWLNGKEYKCKVSNKGLPSSIEKTISKAKGQPREPQVYTLPPSQQEMTKNQVSLTCLVKGFYPSDIAVEWESNGQPENNYKTTPPVLDSDGSFFLYSRLTVDKSRWQEGNVFSCSVMHEALHNHYTQQSLSLSLGGGGGSGGGGSAPAPAPAPAPAPAPAPAPAPGGGGSGGGGSGDHCPLGPGRCCRLHTVRASLEDLGWADWVLSPREVQVTMCIGACPSQFRAANMHAQIKTSLHRLKPDTVPAPCCVPASYNPMVLIQKTDTGVSLQTYDDLLAKDCHCI

Relative activity ratio (native GDF15 EC50: Fc-GDF15 construct EC50), ERK1/2 phosphorylation HTRF in HEK293T cells expressing human GFRAL and RET: 3.16 ratio
B3: Fc-GDF15 fusion protein M51 (Fc fusion)
chain: APEAAGGPSVFLFPPKPKDTLMISRTPEVTCVVVDVSQEDPEVQFNWYVDGVEVHNAKTKPREEQFNSTYRVVSVLTVLHQDWLNGKEYKCKVSNKGLPSSIEKTISKAKGQPREPQVYTLPPSQEEMTKNQVSLTCLVKGFYPSDIAVEWESNGQPENNYKTTPPVLDSDGSFFLYSRLTVDKSRWQEGNVFSCSVMHEALHNHYTQNSLSLSLGGGGGSGGGGSAPAPAPAPAPAPAPAPAPAPGGGGSGGGGSDHCPLGPGRCCRLHTVRASLEDLGWADWVLSPREVQVTMCIGACPSQFRAANMHAQIKTSLHRLKPDTVPAPCCVPASYNPMVLIQKTDTGVSLQTYDDLLAKDCHCI

Relative activity ratio (native GDF15 EC50: Fc-GDF15 construct EC50), ERK1/2 phosphorylation HTRF in HEK293T cells expressing human GFRAL and RET: 1.69 ratio
B4: Fc-GDF15 fusion protein M8 (Fc fusion)
chain: B3 chain with E126K, N209K

More lines, now with the values behind:

B1: Fc-GDF15 fusion protein M3 (Fc fusion)
chain: B2 chain with Q126E, Q209E
Relative activity ratio (native GDF15 EC50: Fc-GDF15 construct EC50), ERK1/2 phosphorylation HTRF in HEK293T cells expressing human GFRAL and RET: 4.53 ratio

B5: Fc-GDF15 fusion protein M7 (Fc fusion)
chain: B3 chain with N209A
Relative activity ratio (native GDF15 EC50: Fc-GDF15 construct EC50), ERK1/2 phosphorylation HTRF in HEK293T cells expressing human GFRAL and RET: 3.16 ratio

B6: Fc-GDF15 fusion protein M5 (Fc fusion)
chain: B3 chain with N209D
Relative activity ratio (native GDF15 EC50: Fc-GDF15 construct EC50), ERK1/2 phosphorylation HTRF in HEK293T cells expressing human GFRAL and RET: 2.47 ratio

B7: Fc-GDF15 fusion protein M6 (Fc fusion)
chain: B3 chain with N209Q
Relative activity ratio (native GDF15 EC50: Fc-GDF15 construct EC50), ERK1/2 phosphorylation HTRF in HEK293T cells expressing human GFRAL and RET: 2.71 ratio
